Source: IntAct's records for PubMed 15150219

B1: Nitrogen regulatory protein P-II (Synechococcus elongatus (strain PCC 7942)), P0A3F4 (parent)
chain: MKKIEAIIRPFKLDEVKIALVNAGIVGMTVSEVRGFGRQKGQTERYRGSEYTVEFLQKLKLEIVVEDAQVDTVIDKIVAAARTGEIGDGKIFVSPVDQTIRIRTGEKNADAI
partner: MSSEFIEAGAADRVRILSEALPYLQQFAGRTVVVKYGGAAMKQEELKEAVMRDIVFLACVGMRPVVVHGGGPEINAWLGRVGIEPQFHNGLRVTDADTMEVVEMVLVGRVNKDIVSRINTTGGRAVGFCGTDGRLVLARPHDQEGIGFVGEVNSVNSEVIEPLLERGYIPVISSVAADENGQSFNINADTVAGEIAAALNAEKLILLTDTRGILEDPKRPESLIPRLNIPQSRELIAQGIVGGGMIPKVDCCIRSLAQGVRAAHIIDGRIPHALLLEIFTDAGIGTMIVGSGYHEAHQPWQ

Variants of: B1
Settings: with argb_syne7 argB

Variant | effect of a mutation on the interaction
S49D | decreasing interaction
S49E | decreasing interaction
S49A | decreasing interaction
